According to publication PMC12566272:

Target: T1, FucR (Cj0480c), IclR-type regulator (Campylobacter jejuni NCTC 11168) (UniProt Q0PB33)
T1 sequence: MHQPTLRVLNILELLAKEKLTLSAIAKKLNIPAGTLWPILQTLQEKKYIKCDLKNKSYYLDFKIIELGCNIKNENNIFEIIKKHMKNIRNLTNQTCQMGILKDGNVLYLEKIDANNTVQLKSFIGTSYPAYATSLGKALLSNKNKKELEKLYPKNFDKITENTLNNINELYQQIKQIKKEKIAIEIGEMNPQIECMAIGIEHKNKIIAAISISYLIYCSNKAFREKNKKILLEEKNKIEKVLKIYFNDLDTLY
Test: EMSA
Details: 50 mM Tris-HCl, 150 mM KCl, 10 mM MgCl2, pH 7.4, room temperature, 1 h; 4-20% gradient PAGE

GCTGATGCATATTGTCTTTATCCTTATTTTATTTTTATAAATTTTAGCATATTTTTTACTTTTAGTAACATAAAATCATAATTTTTATTATTTATTAATTTTAATATTTTTTTTGTAAAAATTGGCAGTTAATAAGAATAAAATACGAATTTTTACCAAGTTAACAGCTTGATTTTTTTACAAATATTTTGTTATATTTTTTGTATATAAATATATTTTTGTATATACGAAAGGAAAAAAATGGGAATTTTAAAAGGAACTTTACCGGCTTTACTTAC (double strand) [PR2 (fucose operon) promoter fragment]
binding: binds
